The values below come from publication PMC3088358.

The target of test [1] is Xenopus Crescent-Flag (Xenopus laevis). Briefly: SPR. Background: In SPR one partner is held on a chip, and binding of the other changes the refractive index at the surface.
Test [2] deals with recombinant human BMP1 protein (human) (UniProt P13497). Briefly: enzyme inhibition kinetics.

Usually Kd stands for the concentration at which binding is half-saturated. A high value points to weaker binding. Turning to “recombinant human BMP1 protein (from UniProt P13497 23-986) (enzyme)”, in test [1], the Kd was found to be 11 nM. In other words, the double-digit nanomolar range.
In general, Ki refers to a measure of affinity in units of concentration, obtained from inhibition or displacement. In the case of Xenopus Crescent-Flag (natural protein), the Ki in test [2] stood at 59 nM.
